We go through two molecules from publication PMC3771910, “The Crystal Structure and RNA-Binding of an Orthomyxovirus Nucleoprotein” (PLoS Pathogens, 2013).

In series [1] the target is ISAV-NP ΔC16 (aa 1–600) (infectious salmon anemia virus (ISAV)). In words: SEC; gel filtration chromatography (Superdex 200) of purified recombinant NP; size estimated against three protein standards.
The target is the same in series [2]. Description: negative-staining electron microscopy; NP mixed with 24-nt RNA at 2:1 protein:RNA molar ratio in 100 mM NaCl, 25 mM HEPES pH 7.5, 25°C 30 min, purified by gel filtration before use.
Series [3] deals with the molecule itself. Description: SEC; gel filtration chromatography (Superdex 200) of purified recombinant NP; size estimated against three protein standards.

Consider “ISAV-NP ΔC16 (aa 1–600) (domain or fragment)”, for which the stoichiometry N in series [1] and in series [2] was 2 in each case.

B1: infectious salmon anemia virus nucleoprotein, full-length (aa 1–616) (natural protein)
chain: MADKGMTYSFDVRDNTLVVRRSTATKSGIKISYREDRGTSLLQKAFAGTEDEFWVELDQDVYVDKKIREFLVEEKMKDMSTRVSGAVAAAIERSVEFDNFSKEAAANIEMAGVDDEEAGGSGLVDNRRKNKGVSNMAYNLSLFIGMVFPALTTFFSAILSEGEMSIWQNGQAIMRILALADEDGKRQTRTGGQRVDMADVTKLNVVTANGKVKQVEVNLNDLKAAFRQSRPKRSDYRKGQGSKATESSISNQCMALIMKSVLSADQLFAPGVKMMRTNGFNASYTTLAEGANIPSKYLRHMRNCGGVALDLMGMKRIKNSPEGAKSKIFSIIQKKVRGRCRTEEQRLLTSALKISDGENKFQRIMDTLCTSFLIDPPRTTKCFIPPISSLMMYIQEGNSVLAMDFMKNGEDACKICREAKLKVGVNSTFTMSVARTCVAVSMVATAFCSADIIENAVPGSERYRSNIKANTTKPKKDSTYTIQGLRLSNVRYEARPETSQSNTDRSWQVNVTDSFGGLAVFNQGAIREMLGDGTSETTSVNVRALVKRILKSASERSARAVKTFMVGEQGKSAIVISGVGLFSIDFEGVEEAERITDMTPEIEFDEDDEEEEDIDI
notes: Nucleoprotein (NP) of infectious salmon anemia virus (ISAV), aa 1-616; Dimer in solution; also called ISAV-NP; wt NP; source: E. coli Rosetta 2 (DE3), purified (HisTrap HP, HiTrap Heparin HP, Superdex 200)
As for B1, the “stoichiometry N” value in series [3] was 2.

In general, stoichiometry N refers to the number of molecules, sites or subunits per partner or assembly.
